Experiment [1] deals with T1, cynomolgus monkey FcγRIIb extracellular domain, C-terminal His-tag (cynomolgus monkey).
T1 construct: also called cyno FcγRIIb; cynoFcγRIIb; not shown: His-tag added to C-terminus
T1 chain: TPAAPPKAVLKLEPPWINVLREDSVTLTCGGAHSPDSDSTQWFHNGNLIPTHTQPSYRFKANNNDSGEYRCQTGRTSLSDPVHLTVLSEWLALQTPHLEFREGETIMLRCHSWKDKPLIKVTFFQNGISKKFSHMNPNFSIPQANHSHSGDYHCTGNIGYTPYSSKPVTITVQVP
Put plainly: SPR (BIACORE); KD of SG1 / KD of variant.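 Also: relative to parent M103205H795-SG1 carrying the SG1 human heavy chain constant region.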

In experiment [2] the target is T2, cynomolgus monkey FcγRIIa3 extracellular domain, C-terminal His-tag (cynomolgus monkey).
T2 construct: also called cyno FcγRIIa3; cynoFcgRIIa3; not shown: His-tag added to C-terminus
T2 chain: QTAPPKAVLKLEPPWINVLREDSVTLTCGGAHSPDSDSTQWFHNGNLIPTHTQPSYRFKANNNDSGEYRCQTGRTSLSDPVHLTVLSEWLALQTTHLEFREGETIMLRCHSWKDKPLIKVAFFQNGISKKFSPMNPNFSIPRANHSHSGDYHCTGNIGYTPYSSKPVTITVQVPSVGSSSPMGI
In words: SPR (BIACORE); KD of SG1 / KD of variant.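 Also: relative to parent M103205H795-SG1 carrying the SG1 human heavy chain constant region.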 A general note: In SPR one partner is held on a chip, and binding of the other changes the refractive index at the surface.

In experiment [3] the target is T1, cynomolgus monkey FcγRIIb extracellular …. In words: SPR (BIACORE), antibody captured, FcγR analyte. The protocol: (§1) The kinetic analysis of interactions between these antibodies and FcγR was carried out using BIACORE® T200 or BIACORE® 4000 (GE Healthcare). HBS-EP+ (GE Healthcare) was used as the running buffer, and the measurement temperature was set to 25° C. A chip produced by immobilizing Protein A. Protein A/G or mouse anti-human IgG kappa light chain (BD Biosciences) onto a Series S Sensor Chip CM4 or CM5 (GE Healthcare) by the amine-coupling method was used. […] After the measurement, the antibody captured on the chip was washed off by allowing reaction with 10 mM glycine-HCl, pH1.5 and 25 mM NaOH so that the chip was regenerated and used repeatedly. The sensorgrams obtained as measurement results were analyzed by the 1:1 Langmuir binding model using the BIACORE® Evaluation Software to calculate the binding rate constant ka (L/mol/s) and dissociation rate constant kd (l/s), and the dissociation constant KD (mol/L) was calculated from these values. […] Regarding such interactions, KD values were calculated using the following 1:1 binding model described in BIACORE® T100 Software Handbook BR1006-48 Edition AE.
(§2) The behavior of interacting molecules according to the 1:1 binding model on BIACORE® can be described by Equation 1: Req=C·R max/(KD+C)+RI, wherein, Req is a plot of steady-state binding levels to analyte concentration. C is concentration, RI is bulk refractive index contribution in the sample, and Rmax is analyte binding capacity of the surface. When this equation is rearranged, KD can be expressed as Equation 2: KD=C·Rmax/(Req−RI)−C. KD can be calculated by substituting the values of Rmax, RI, and C into Equation 1 or Equation 2. From the current measurement conditions, RI=0, C=2 μmol/L can be used.

Experiment [4] deals with T2, cynomolgus monkey FcγRIIa3 …. In words: SPR (BIACORE), antibody captured, FcγR analyte. The protocol: as §1, §2
For experiment [5], the target named is T3, human FcγRIIb extracellular domain, C-terminal His-tag (human, UniProt P31994 43-217).
T3 construct: also called humanFcgRIIb; not shown: His-tag added to C-terminus
T3 sequence: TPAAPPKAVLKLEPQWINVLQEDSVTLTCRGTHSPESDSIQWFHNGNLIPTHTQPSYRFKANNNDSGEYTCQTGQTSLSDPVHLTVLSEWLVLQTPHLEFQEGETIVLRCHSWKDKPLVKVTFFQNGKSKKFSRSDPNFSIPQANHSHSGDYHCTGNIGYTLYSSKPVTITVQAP
Put plainly: SPR (BIACORE), antibody captured, FcγR analyte. On the procedure:
as §1, §2

For experiment [6], the target named is T4, cynomolgus monkey FcγRIIIaS extracellular domain, C-terminal His-tag (cynomolgus monkey, UniProt A3RFZ7 21-206 (rhesus entry)).
T4 construct: also called cyno FcγRIIIaS; cynoFcγRIIIaS; not shown: His-tag added to C-terminus
T4 sequence (A3RFZ7 21-206): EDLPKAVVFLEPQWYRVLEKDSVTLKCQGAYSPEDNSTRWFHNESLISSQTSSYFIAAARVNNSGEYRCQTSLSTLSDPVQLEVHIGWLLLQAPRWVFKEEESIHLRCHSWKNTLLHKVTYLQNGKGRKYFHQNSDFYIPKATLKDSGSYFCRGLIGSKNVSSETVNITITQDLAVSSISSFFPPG
Put plainly: SPR (BIACORE), antibody captured, FcγR analyte. On the procedure: as §1, §2

In experiment [7] the target is T5, human FcγRIIIaV extracellular domain, C-terminal His-tag (human, UniProt P08637 17-208).
T5 construct: also called FcgRIIIaV; not shown: His-tag added to C-terminus
T5 sequence (P08637 17-208 F176V): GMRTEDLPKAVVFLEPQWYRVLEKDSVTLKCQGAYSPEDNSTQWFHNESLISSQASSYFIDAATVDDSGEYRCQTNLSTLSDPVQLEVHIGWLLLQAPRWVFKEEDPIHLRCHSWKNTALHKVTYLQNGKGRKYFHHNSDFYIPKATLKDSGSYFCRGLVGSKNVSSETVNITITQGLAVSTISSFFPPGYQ
In words: SPR (BIACORE), antibody captured, FcγR analyte. On the procedure: as §1, §2

The target of experiment [8] is T6, human FcγRIIaR extracellular domain, C-terminal His-tag (human, UniProt P12318 34-217).
T6 construct: also called human FcγRIIa (type R); FcgRIIaR; not shown: His-tag added to C-terminus
T6 chain: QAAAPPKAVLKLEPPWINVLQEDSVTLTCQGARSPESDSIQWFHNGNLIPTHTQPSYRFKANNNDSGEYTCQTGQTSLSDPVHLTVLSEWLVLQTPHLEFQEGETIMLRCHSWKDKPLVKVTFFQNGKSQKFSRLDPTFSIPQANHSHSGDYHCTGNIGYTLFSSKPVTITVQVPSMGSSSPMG
Put plainly: SPR (BIACORE), antibody captured, FcγR analyte. On the procedure:
as §1, §2

For experiment [9], the target named is T7, cynomolgus monkey FcγRIIa2 extracellular domain, C-terminal His-tag (cynomolgus monkey).
T7 construct: also called cyno FcγRIIa2; cynoFcgRIIa2; not shown: His-tag added to C-terminus
T7 chain: T2 chain with I127K, K130N, P133H, R142Q
In words: SPR (BIACORE), antibody captured, FcγR analyte. On the procedure: as §1, §2

Experiment [10] has as its target T8, human FcγRIIaH extracellular domain, C-terminal His-tag (human, UniProt P12318 34-217).
T8 construct: also called human FcγRIIa (type H); FcgRIIaH; not shown: His-tag added to C-terminus
T8 sequence: T6 chain with R134H
In words: SPR (BIACORE), antibody captured, FcγR analyte. On the procedure:
as §1, §2

Where a chain is given by its changes, count along the chain named. In names and notes the source's numbering stands.

Broadly, the Kd is the constant that tells how readily two partners part at equilibrium.

B1: MS_M103205H795-SG1/M103202L889-SK1 (antibody, human IgG1, kappa)
heavy: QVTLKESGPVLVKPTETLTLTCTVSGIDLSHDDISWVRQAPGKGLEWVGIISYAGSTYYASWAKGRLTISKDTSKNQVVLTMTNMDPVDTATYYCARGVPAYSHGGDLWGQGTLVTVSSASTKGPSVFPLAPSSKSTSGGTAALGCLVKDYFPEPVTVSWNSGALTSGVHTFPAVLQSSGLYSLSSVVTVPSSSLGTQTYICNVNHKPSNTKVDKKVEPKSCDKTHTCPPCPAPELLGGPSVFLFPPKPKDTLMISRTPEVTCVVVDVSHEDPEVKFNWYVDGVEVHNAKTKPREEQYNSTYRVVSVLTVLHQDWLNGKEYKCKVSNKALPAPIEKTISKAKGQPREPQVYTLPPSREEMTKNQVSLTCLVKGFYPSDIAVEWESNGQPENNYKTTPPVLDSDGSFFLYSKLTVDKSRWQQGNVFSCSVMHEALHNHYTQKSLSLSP
light: DIVMTQSPATLSLSPGERATLSCTSSQSVYHANWLSWFQQKPGQPPKLLIYWASTLAYGVPSRFSGSGSGTDFTLTISSLQPEDAATYYCAGGYGGGRYAFGQGTKVEIKRTVAAPSVFIFPPSDEQLKSGTASVVCLLNNFYPREAKVQWKVDNALQSGNSQESVTEQDSKDSTYSLSSTLTLSKADYEKHKVYACEVTHQGLSSPVTKSFNRGEC
notes: Parent antibody with SG1 human heavy chain constant region; also called MS1032LO06-SG1
As to B1, the “KD fold (SG1 = 1)” value in experiment [1] and in experiment [2] was 1 fold throughout. Further, the Kd came out at 1800 nM in experiment [3]; 1700 nM in experiment [4]; 4600 nM in experiment [5]; 360 nM in experiment [6]; 810 nM in experiment [7]; 1100 nM in experiment [8]. Moreover, the figures for the Kd in experiment [9] and in experiment [10] were 5100 nM and 690 nM, respectively.

B2: M103205H795-MY201 / M103202L889-SK1 (antibody, human IgG1, kappa)
heavy: QVTLKESGPVLVKPTETLTLTCTVSGIDLSHDDISWVRQAPGKGLEWVGIISYAGSTYYASWAKGRLTISKDTSKNQVVLTMTNMDPVDTATYYCARGVPAYSHGGDLWGQGTLVTVSSASTKGPSVFPLAPSSKSTSGGTAALGCLVKDYFPEPVTVSWNSGALTSGVHTFPAVLQSSGLYSLSSVVTVPSSSLGTQTYICNVNHKPSNTKVDKKVEPKSCDKTHTCPPCPAPELLNGPSVFLFPPKPKDTLMISRTPEVTCVVVDVSDEDPEVKFNWYVDGVEVHNAKTKPREEQYNSTYRVVSVLTVLHQDWLNGKEYKCKVSNKALPKPIEKTISKAKGQPREPQVYTLPPSREEMTKNQVSLTCLVKGFYPSDIAVEWESNGQPENNYKTTPPVLDSDGSFFLYSKLTVDKSRWQQGNVFSCSVMHEALHNHYTQKSLSLSP
light: B1 light
notes: CH with G236N/H268D/A330K against SG1 (EU numbering); also called MS1032LO06-MY201
Consider B2, for which the “KD fold (SG1 = 1)” value in experiment [1] is 4.2 fold; in experiment [2] it was 4.4 fold. Further, the Kd worked out at 430 nM in experiment [3]; 3900 nM in experiment [4]; 1100 nM in experiment [5]; 5700 nM in experiment [6]; 24000 nM in experiment [7]; 1900 nM in experiment [8]. Besides, the figures for the Kd in [9] and in experiment [10] were 1400 nM and 910 nM, respectively.

B3: M103205H795-MY344 / M103202L889-SK1 (antibody, human IgG1, kappa)
heavy: B2 heavy with Q297L, Q313R, D415K
light: B1 light
notes: CH with G236N/H268D/Q295L/Q311R/A330K/D413K against SG1 (EU numbering); also called MS1032LO06-MY344
Consider B3, for which the “KD fold (SG1 = 1)” value in experiment [1] turned out to be 5.8 fold; in experiment [2], 7.7 fold. The Kd in experiment [3] came out at 310 nM; in [4] it was 2200 nM; in experiment [5] it was 720 nM; in [6] it was 4900 nM; in experiment [7] it was 19000 nM; in experiment [8], 1200 nM. Further, the figures for the Kd in experiment [9] and in [10] were 1100 nM and 670 nM, respectively.

B4: M103205H795-MY351 / M103202L889-SK1 (antibody, human IgG1, kappa)
heavy: B2 heavy with Q313R, D415K
light: B1 light
notes: CH with G236N/H268D/Q311R/A330K/D413K against SG1 (EU numbering); also called MS1032LO06-MY351
On to B4, for which the “KD fold (SG1 = 1)” value was 5.1 fold in experiment [1] and 8.9 fold in experiment [2]. In addition, the Kd in [3] was found to be 350 nM; in experiment [4] it was 1900 nM; in [5], 1200 nM; in [6] it was 5200 nM; in experiment [7] it was 14000 nM; in [8], 1800 nM. The Kd in [9] worked out at 760 nM; in experiment [10], 1000 nM.

B5: M103205H795-PK2 / M103202L889-SK1 (antibody, human IgG1, kappa)
heavy: B2 heavy with D270E, P398M, S402R, D415K
light: B1 light
notes: CH with G236N/H268E/A330K/P396M/S400R/D413K against SG1 (EU numbering); also called MS1032LO06-PK2; MS103205H795-PK2
For B5, the “KD fold (SG1 = 1)” value in experiment [1] was found to be 4.7 fold; in experiment [2], 4.5 fold. Further, the Kd in [3] worked out at 380 nM; in experiment [4], 3800 nM; in [5], 590 nM; in [6] it was 3900 nM; in experiment [7], 13000 nM; in [8] it was 1100 nM. The results for the Kd in experiment [9] and in experiment [10] were 1300 nM and 570 nM, respectively.

B6: M103205H795-MY335 / M103202L889-SK1 (antibody, human IgG1, kappa)
heavy: B2 heavy with N238T, Q313R, D415K
light: B1 light
notes: CH with G236T/H268D/Q311R/A330K/D413K against SG1 (EU numbering); also called MS1032LO06-MY335
In the case of B6, the figures for the “KD fold (SG1 = 1)” value in experiment [1] and in experiment [2] were 2.8 fold and 6.3 fold, respectively. Besides, the Kd amounted to 650 nM in experiment [3]; 2700 nM in [4]; 2300 nM in [5]; 1500 nM in experiment [6]; 5000 nM in experiment [7]; 290 nM in experiment [8]. In addition, the values for the Kd in experiment [9] and in experiment [10] were 1700 nM and 290 nM, respectively.

B7: M103205H795-MY205 / M103202L889-SK1 (antibody, human IgG1, kappa)
heavy: B2 heavy with Q297L
light: B1 light
notes: CH with G236N/H268D/Q295L/A330K against SG1 (EU numbering); also called MS1032LO06-MY205
Turning to B7, the “KD fold (SG1 = 1)” value was found to be 7.2 fold in [1] and 5.7 fold in [2]. In addition, the Kd in experiment [3] worked out at 250 nM; in experiment [4] it was 3000 nM; in experiment [5] it was 560 nM; in [6], 6000 nM; in experiment [7] it was 13000 nM; in experiment [8], 1300 nM. Further, the dissociation constant Kd in experiment [9] was 1100 nM; in experiment [10], 470 nM.

B8: M103205H795-MY101 / M103202L889-SK1 (antibody, human IgG1, kappa)
heavy: B2 heavy with D270E, P398M
light: B1 light
notes: CH with G236N/H268E/A330K/P396M against SG1 (EU numbering); also called MS1032LO06-MY101
In the case of B8, the “KD fold (SG1 = 1)” value in [1] was found to be 5.1 fold; in experiment [2] it was 4.7 fold. Further, the Kd in experiment [3] is 350 nM; in [4], 3600 nM; in [5], 490 nM; in [6] it was 3200 nM; in experiment [7], 11000 nM; in experiment [8] it was 870 nM. Besides, the Kd worked out at 1200 nM in [9] and 490 nM in experiment [10].

(Values after patent US20200317768A1 (published 2020).)
